Tests used:
Experiment in all cases: phage ELISA, Fab adsorbed on plate, peptide-displaying phage added, anti-M13-HRP detection
[1] = target: T1, Phage-displayed dodecapeptide of SEQ ID NO 6 (Ph.D.-12 library clone) (filamentous phage M13)
T1 construct: In the screening ELISA the peptide stood on whole M13 phage particles, not as a free peptide; not shown: cpIII coat protein of the filamentous phage M13; the dodecapeptide is at its N-terminus
T1 peptide: MQSPFTPHFAER

[2] = target: T2, Phage-displayed dodecapeptide of SEQ ID NO 8 (Ph.D.-12 library clone) (filamentous phage M13)
T2 construct: In the screening ELISA the peptide stood on whole M13 phage particles, not as a free peptide; not shown: cpIII coat protein of the filamentous phage M13; the dodecapeptide is at its N-terminus
T2 peptide: HHEPGAWLPLSP

[3] = target: T3, Phage-displayed dodecapeptide of SEQ ID NO 5 (Ph.D.-12 library clone) (filamentous phage M13)
T3 construct: In the screening ELISA the peptide stood on whole M13 phage particles, not as a free peptide; not shown: cpIII coat protein of the filamentous phage M13; the dodecapeptide is at its N-terminus
T3 peptide: TMGFTAPRFPHY

[4] = target: T4, Phage-displayed dodecapeptide of SEQ ID NO 7 (Ph.D.-12 library clone) (filamentous phage M13)
T4 construct: In the screening ELISA the peptide stood on whole M13 phage particles, not as a free peptide; not shown: cpIII coat protein of the filamentous phage M13; the dodecapeptide is at its N-terminus
T4 peptide: MQSPIVLPLSLS

Measured: OD450nm

B1: Fab 68 (soluble Fab, heavy chain clone 6 and light chain clone 8 from a coronary plaque sample) (Fab, V domains shown)
VH: LEESGAEVKKPGENLKISCEASGYNFVNHWIGWVRQMPGRGLEWMGRIYPGDSETRFSPSFQGQVTISVDKTLSTASLQWNSLKTSDSATYYCVTLGRWSSWQGGALSWGQGT
VL: ELTQSPATVSVSPGERATLSCRASQSISFHLAWYQQKPGQAPSLLIYGTSTRATGIPARFSGSGSGTEFTLTISSLQSEDSAVYYCQQYHNWPPLTFGGGT
notes: also called Fab of the invention; Fabs of the present invention
> 1 OD450nm: [1] | [2] | [3] | [4]

Reference: patent publication US20120115741A1 (BRACCO IMAGING S P A, published 2012)
